Laboratory results as given in publication PMC4373355.

Columns and labels:
[1] = molecular target: T1, Human amylin (1-37) (human); assay: cross-linking; conditions: remark: other sources report otherwise
T1 chain: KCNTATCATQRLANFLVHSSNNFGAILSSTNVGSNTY

[2] = molecular target: T1, Human amylin (1-37) (human); assay: cross-linking; conditions: remark: other sources report otherwise

B1: Human amylin (1-37) (peptide)
peptide: KCNTATCATQRLANFLVHSSNNFGAILSSTNVGSNTY
stoichiometry N [1]: 6
stoichiometry N [2]: < 6
